Results on 167 variants are retold here after the RNAGym collection of RNA variant scans (doi:10.1073/pnas.2313332121).

B1: TPR t1 (parent)
chain: GACCAAUCUGCCCUCAGAGCUCGAGAACAUCUUCGGAUGCAGAGGAGGCAGGCUUCGGUGGCGCGAUAGCGCCAACGUCCUCAACCUCCAAUGCAUCCCACCACAUGAUGAUGCCUGAAGAGCCUUGGUUUUUUG

This series covers variants of B1. Description: polymerase ribozyme fitness, log enrichment relative to wild type (log ratio); higher = more active; in vitro selection for triplet polymerase activity. A digest of the protocol:
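In triplicate, a single round of in vitro selection was run on each mutant library, PCR-built and transcribed, covering one subunit of a heterodimeric triplet polymerase ribozyme. Frozen incubation at −7 °C followed annealing with a biotinylated primer, partner subunit and triplets, and extended constructs were then gel-excised, streptavidin-captured and taken through RT-PCR. Fitness is the logarithm of genotype enrichment over wild-type enrichment, from inverse-variance-weighted replicate averages of Illumina-sequenced inputs and outputs. […] only genotypes with ≥10 input reads and ≥1 read per output were kept.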
For G10A C11A C15A, the “polymerase ribozyme fitness (log ratio)” value was -4.29. The same measure for C72U G107C U109A U130A: -5.31. The value for A29G G51U U55A G57U was -3.55; that for G39U G122A was -1.25; that for C4U G69C C82A C88G A91U U106A was -5.66.

For the variant U9A A29U G63A C104A, the “polymerase ribozyme fitness (log ratio)” value is -3.02. As to C3U U59C A111G G120U, the “polymerase ribozyme fitness (log ratio)” value was -2.84. The same measure for G10A G93U C102A: -3.7.

C11G C28U C56A G60A U78G: the “polymerase ribozyme fitness (log ratio)” value was -4.9. The value for C15U G47U C49A C86A U106C was -2.3.

Take A118U G120U: the “polymerase ribozyme fitness (log ratio)” value was -0.245.

With G42A G45U, the “polymerase ribozyme fitness (log ratio)” value was -2.62. For the variant A18G U129C, the “polymerase ribozyme fitness (log ratio)” value is -4.73. The same measure for C73G G93C: -2.05. The value for A2U G113U was -4.15; that for C70A A84U U87A was -2.24; that for C8A C11G C13U C20A G36A U78C was -3.05. The same measure for G10C G45U G47U C73A G117A A119U: -5.46; for U92C U125G: -1.76. As for G52A C62U, the “polymerase ribozyme fitness (log ratio)” value is -0.528. The same measure for C49U G69U: 0.911; for G39U G117U: -3.23; for U9A C13G G61U: 0.255. The value for C11G G69A C70A was -4.98.

C4U G52A C114A: the “polymerase ribozyme fitness (log ratio)” value is -2.66.

With U7C C12U C22U G63A, the “polymerase ribozyme fitness (log ratio)” value is -4.58. Take G44A G47U U78C G110A: the “polymerase ribozyme fitness (log ratio)” value was -3.74.

Consider G39A G42A, for which the “polymerase ribozyme fitness (log ratio)” value is -2.67. The same measure for G60C A90C C97U G117C: -6.07; for U87A C102U C104A: -1.05; for C8G A103U: -3.34. The same measure for G36U A46U C72G C82A U87C U130G: -3.54; for A46C C49U A111U U133G: -5.19; for C8G C76A C82A C114G: -4.44. The value for G48U C82G U92G was -4.41; that for A5G C11G C28U U59G A118G G127U G135U was -2.91; that for C4G C40U was -1.78. Take C28A G39U A83C C123U U133A: the “polymerase ribozyme fitness (log ratio)” value was -4. Regarding A18C C89G U116C C124A, the “polymerase ribozyme fitness (log ratio)” value is -0.0811. The same measure for U7C C11A C22A: -5.95; for C73U U92C: -1.83. The value for U7C A43U G52A C53U C85A U87A was -4.57; that for A37U G51U G77A A91U was -6.95. The value for C12U C34G G127A was -6.04; that for A26U G57U was -4.04; that for A43G C70A was -4.41. For the variant C56A C62U C114U, the “polymerase ribozyme fitness (log ratio)” value is -2.3. The value for G44C C53U C56U C115U G117U G135A was -3.91; that for C73G C124A U130G was 1.1. The value for G77C G110U was -1.93. The value for G19U G39C C53U C124A was -2.93. In the case of C28U C49A G61U C86U, the “polymerase ribozyme fitness (log ratio)” value was -2.72. The value for U109C was -2.41; that for U129A G135C was -0.497; that for U9A C72U G110C U130A was -4.28. The same measure for C4G U9C C70U C89U U96A: -3.09. The value for A37C C104A was -1.22. For A95U G113U U125A, the “polymerase ribozyme fitness (log ratio)” value is -3.81. The value for A26U G45A U54A was -4.06. The value for C11U G45A C89G A121G was 0.687; that for G17A C40U was -3.88; that for G61U C82A was -0.605. The same measure for A29C C40U A41U C124U: -3.03; for U7C G17C C115A: 0.0409. In the case of G19A C62A C82A G93U U112A, the “polymerase ribozyme fitness (log ratio)” value was -2.13. The same measure for G63A G113U: -2.82. The value for C8G G45A C56U C72U C94A C101A was -2.54. The value for G35A C98G was -6.5; that for G63U A90U was -3.53; that for C31A A37U G60A A83C was -7.59.

For the variant C12U G36C G117U, the “polymerase ribozyme fitness (log ratio)” value was -0.382.

As to G36U C115U, the “polymerase ribozyme fitness (log ratio)” value was -2.01.

With U9G G113A, the “polymerase ribozyme fitness (log ratio)” value is -0.0202. The value for G35A G52C C86U was -6.34. The value for C15U C73U A74C was -1.46; that for A5G C11A G58U was -1.23. The same measure for A2U C8G A27C G36C C40G G60A G93C G110U U130G: -5.89; for A74G U112A U126A: 0.303.

G10C C11U C13A A37U C70U: the “polymerase ribozyme fitness (log ratio)” value was -0.31.

For G39U C76A U125G, the “polymerase ribozyme fitness (log ratio)” value is -2.02. The same measure for U33A A46U C97A: -6.45; for A6C A41C C94A U129G: -4.39; for G36A C88A: -1.76.

Regarding G17U C70G, the “polymerase ribozyme fitness (log ratio)” value was -4.78. The same measure for G42C G44U A74C C99A C123G: -6.31. The same measure for C72A G117U: -2.32.

On to C11A G52A C73G, for which the “polymerase ribozyme fitness (log ratio)” value was -2.98. As for C56U C79G C102U C104U, the “polymerase ribozyme fitness (log ratio)” value was -4.64.

As to C53U, the “polymerase ribozyme fitness (log ratio)” value was -0.1. The same measure for C13U C56U A111G: 0.163; for C11A G44U C56U: -2.23; for G63C U92A U132A: -3.33. Take C11G G52A C56A: the “polymerase ribozyme fitness (log ratio)” value was -0.203. The value for G120A U132C was 0.977; that for C4A C99U was -4.5; that for C40A G44C C72G G127A was -4.18. As to C11U A29U, the “polymerase ribozyme fitness (log ratio)” value is -2.46.

C8A U21G A50G C88A C124A: the “polymerase ribozyme fitness (log ratio)” value was -0.0763. The value for U14G G120C was 0.117. As for C56A G58C C62U C101A C104U, the “polymerase ribozyme fitness (log ratio)” value was -1.18. Consider C13U C73U C124U G127A, for which the “polymerase ribozyme fitness (log ratio)” value turned out to be 0.275.

In the case of C34G G60A C70A A105U G117U U126A U129A U133G, the “polymerase ribozyme fitness (log ratio)” value is -6.69. G52C G71U U132A: the “polymerase ribozyme fitness (log ratio)” value is -0.43. The same measure for A5U G17C A18U C20U A46C U59A A121G G127C: -5.48. As to C49G G69U, the “polymerase ribozyme fitness (log ratio)” value is -0.396. The same measure for C49G U55G: -1.16. The same measure for G10A G61U G122A: 0.738; for G52U G69U G71C: -1.06; for A2U C11G G48U G93U G120C G122U: -1.28. The same measure for A100C G117A: -2.55. A46G C53A C56U: the “polymerase ribozyme fitness (log ratio)” value was -0.0153. As for G39A A95G C115A, the “polymerase ribozyme fitness (log ratio)” value is -0.556. The value for C72G C94G G113A G122U was -3.41; that for A6U C80A A95U G120A U130G was -3.72. As for A119U C123U, the “polymerase ribozyme fitness (log ratio)” value was found to be 2.17.

C11G U21A G77A: the “polymerase ribozyme fitness (log ratio)” value is -0.311. The value for U9G A27U U133G was -2.53. The same measure for G45C G128C: -4.18. The value for C20A G63A C94A U112A was -2.57.

As to G10U A18U C40A C56G, the “polymerase ribozyme fitness (log ratio)” value was -4.94. On to C3G A6C C49A C53U G61C C97U C101U, for which the “polymerase ribozyme fitness (log ratio)” value was -3.42.

As to G71U G93A C104U, the “polymerase ribozyme fitness (log ratio)” value is -0.466. For C70A U125A G128A, the “polymerase ribozyme fitness (log ratio)” value was -3.04. The value for U78C G93A U112C G128U was -1.32; that for C22A G61A A83G U96A C114A was -5.1; that for G52U C64U U116C was -2.49. The same measure for C11A G60C A95C: -1.9. The same measure for C53A A68G: -2.61; for C22G U32G C49A G61U U87C: -4.78. In the case of C62A U78C G117A, the “polymerase ribozyme fitness (log ratio)” value is -3.04. The value for C79G A84C was -2.61.

Regarding A43G A103C A119G A121G G122U G135U, the “polymerase ribozyme fitness (log ratio)” value was -4.67.

For the variant C40U C73U, the “polymerase ribozyme fitness (log ratio)” value is -0.508. The value for C94U C114U was -2.58; that for U54G G63A G69U U78G C102A U106G G120C was -6.62; that for G10A G47A A68G U109C C123G was -6.84. The same measure for G63C C88A: -1.08; for C73G U116A: -3.66.

As for G45A A46C C49U C101A U112G U131A, the “polymerase ribozyme fitness (log ratio)” value was -5.02. The same measure for G61A U116A: -2.68. The same measure for A26U G60A C97U G110U: -5.7; for C56A C123A: 0.85. The same measure for A18C C86G: -3.25. As to A50C U81C, the “polymerase ribozyme fitness (log ratio)” value came out at 0.175. The same measure for C15A A41C: -3.59.

On to G71C U87A C123A, for which the “polymerase ribozyme fitness (log ratio)” value is -2.66. The same measure for C72A C97U: 0.226; for U9G U54A C97G U131C: -4.7.

Regarding G39A G63A, the “polymerase ribozyme fitness (log ratio)” value was -1. The value for C49U C123G G128C was -1.69; that for G60U U132A was -0.036. As for A5U C13G C53G A118U, the “polymerase ribozyme fitness (log ratio)” value is -2.18. The same measure for A41G C99A A119G U125A: -6.99; for G71C G113A G128A: -3.16.

On to C28A U96A C97A G110A C124A, for which the “polymerase ribozyme fitness (log ratio)” value is -3.05. The same measure for A46C G57C: -0.329. The same measure for G39U C62U C99U: -5.08; for G61A G113U: -2.69; for G47U U54C: -3.33. The same measure for U106G C123U G127A: -3.09; for U9C G44A C79U C86U G120A: 0.952.

Consider U32C G35C C53A U78A, for which the “polymerase ribozyme fitness (log ratio)” value is -4.25. The same measure for C62A C114A: -2.71; for G10C U112A: 0.23.

Turning to C49U C97U, the “polymerase ribozyme fitness (log ratio)” value is -1.01.

With C4G C34A G69U C97U C114A G122U C123A, the “polymerase ribozyme fitness (log ratio)” value is -3.31. The value for C28U U106A was -0.471.
